Measured values taken from publication PMC1262761, “Expression and cytosolic assembly of the S-layer fusion protein mSbsC-EGFP in eukaryotic cells” (Microbial Cell Factories, 2005).

Biological target: the molecule itself
Assay: in vitro recrystallisation (self-assembly) seen by electron microscopy (REM, TEM); FPLC-purified mSbsC-EGFP, denatured in Gua-HCl, dialysed against dH2O over night; assembled structures negatively stained with 3% ammonium molybdate pH 7.2

B1: mSbsC-EGFP fusion protein (mature S-layer protein SbsC, aa 31-1099, of Geobacillus stearothermophilus ATCC 12980 fused to EGFP), from E. coli (natural protein, UniProt O68840 31-1099, looked up)
chain: ATDVATVVSQAKAQMKEAYYTYSHTVTETGQFPDIKDVYAAYNKAKQAYANAVAVVNKAGGAKKDAYLADLQAIYETYVFKANPKSGEARVATYIDAYNYATKLDKMRQELKAAVDAKDLKKAEELYHKISYELKTRTVILDRVYGQSTRELLRSTFKADAQALRDRLIYDITVAMKAREAQDAVKAGNLDKAKAALDQVNQYVSKVTDAFKAELQKAAQDAKAAYEAALTPKVESVSAIDSTSFKVTFTKPVDKATAIPKNFSITLKGTETKLYPKSVEVSESGLTATVTLYDTLVDGKTYTVVTSGLKDTAGKEFETSTNEFTYNKPVPASITFNFNKLPEDSAVDLTKYVTVKDAAGNVIKSGFELEFTSSEKLTQGKFINTTGKKSVIVNATVKGTNVTTGNVILAVEDEKAAEVSELKLTKDNKEVVTLYANGNAFDKDGNQISSGTLTLTAKFKDQYGNELTGKVAGTDYTFESLNPEVLVVAPDGSVTPIVPGTALVKVKYGEVTKTIPVTVKANPVLETIAVDSTGVSVAKGQKATFKVTLKDQYGNKFTGNVNVTSDKTETATVSVSNSGIGQSEYTVTVNGVAEGSTTITIKSGTKEVKVPVNVVAGGPVANYQIKVLDDGKIDKSATESPANNDVQLKVYAVDANGNIVGDITNDVTITSEATDTNGVIVNASKSTANGDTVYVITDNGSKKVGKETLTVKLGTVTLGTVDVEVIDTTLKATVVTKKADLIELDAADNGDALAKLLANLDIKDQNGNPMVDSAATPNTNEKLQALKSVLSGIVSSDTSVIGSVSNVDNLKDDASISGLAVKKAGTVTLTLVFNEDSKIAPIAITVKAPAATQDGVTVTGLDLVPGVTGVGKTKFTATDKIKSGHKLYYAVDDSAVPAPAVGTTRNSTKFANEITVGTTEVAANAGQIITVIEVDSSDRVVGYKTFTVEAADLSVAADKTGFTATVTPTGGNQVTTGKTLLAVSDLANGHKLYAAAAGSSAAAAPVKGIAYTDTTVRTTYGTEVTSGTVEVDAQDGQHISIIEVDENGKVVGYKDYTITGIQIGTKSAS
notes: S-layer protein SbsC of Geobacillus stearothermophilus ATCC 12980, mature part, aa 31-1099 (without the 30 aa N-terminal secretion signal); an ATG initiation codon was introduced 5' of the reading frame by the primer; A Met from the introduced ATG precedes residue 31; A two-residue linker (Leu-Glu, from the XhoI site) stands between SbsC and the EGFP reading frame (720 bp, from the Clontech …)
B1: binds.
